The series concerns the target T1, CdtA-CdtC heterodimer.
T1 chain 1: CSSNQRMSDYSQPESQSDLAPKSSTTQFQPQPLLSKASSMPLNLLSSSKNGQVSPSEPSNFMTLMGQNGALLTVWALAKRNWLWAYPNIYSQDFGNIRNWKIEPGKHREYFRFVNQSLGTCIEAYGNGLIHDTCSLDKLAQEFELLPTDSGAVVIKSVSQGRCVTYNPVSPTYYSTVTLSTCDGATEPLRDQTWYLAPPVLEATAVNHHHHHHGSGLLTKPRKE
T1 chain 2: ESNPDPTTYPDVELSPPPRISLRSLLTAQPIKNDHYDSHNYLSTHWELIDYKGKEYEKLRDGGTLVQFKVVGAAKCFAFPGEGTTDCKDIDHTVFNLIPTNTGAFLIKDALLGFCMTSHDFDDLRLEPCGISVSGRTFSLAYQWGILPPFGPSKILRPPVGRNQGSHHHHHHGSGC

B1: CdtB/DNase I hybrid protein (protein)
chain: NLSDFKVATWNLQGSSAVNESKWNINVRQLLSGEQGADILMVQEAGSLPSSAVRTSRVIQHGGTPIEEYTWNLGTRSRPNMVYIYYSRLDVGANRVNLAIVSRRQADEAFIVHSDSSVLQSRPAVGIRIGTDVFFTVHAAPGDAVAEIDALYDVYLDVQEKWGLEDVMLMGDFNAGCSYVRPSQWSSIRLWTSPTFQWLIPDSADTTATPTHCAYDRIVVAGMLLRGAVVPDSALPFNFQAANGLSDQLAQAISDHYPVEVMLKHHHHHHHMLEDPAANKAQKK
For the protein B1, the “DNA nicking activity of reconstituted heterotrimer preparations (subunit protection)” value was “reconstituted heterotrimer preparations containing the CdtB/DNase I hybrid protein failed to convert supercoiled DNA to linear and relaxed forms”.

For the origin of these results see US20150291667A1.
